Assay [1] deals with mouse IL-2 Rβγ on mouse primary NK cells (mouse) (UniProt P16297).
Assay [2] has as its target recombinant human IL-2 (human) (UniProt P60568).
Assay [3] shares this target. This is another data set of the same source.
Assay [4] shares this target. This is another data set of the same source.
Assay [5] shares this target. The source holds these as a separate data set.
The target is the same in assay [6]. The source holds these as a separate data set.
For assay [7] the target is unchanged. The source holds these as a separate data set.
The target is the same in assay [8]. This is another data set of the same source.
Assay [9] shares this target. The source holds these as a separate data set.
Another assay addresses T1, rat IL-2 (rat, UniProt P17108).
T1 sequence: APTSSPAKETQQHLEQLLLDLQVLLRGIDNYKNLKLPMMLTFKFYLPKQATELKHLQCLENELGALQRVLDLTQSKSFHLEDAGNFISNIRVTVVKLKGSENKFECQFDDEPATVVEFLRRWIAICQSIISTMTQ
The assay can be described thus: SPR (Biacore 4000), antibody captured on anti-human IgG Fc, IL-2 30 nM to 1 nM; affinity estimate. As to the method: Antibody affinities were measured by SPR using the Biacore 4000 with a standard capture methodology. Briefly, anti-human IgG (Fc specific) from an anti-human antibody capture kit (Biacore) was immobilized onto spots 1, 2, 4, and 5 of all four flow cells of a CM-5 sensor chip by amine coupling according to the manufacturer's instructions. Running buffer was HBS-EP+ with 1% BSA. […] Data were analyzed using the Biacore 4000 Evaluation software.
These sequences were imported into vector NTI® (Lifetech) and aligned using the alignx tool.

The values below come from patent publication US20210188969A1, “ANTIBODIES THAT BIND INTERLEUKIN-2 AND USES THEREOF” (published 2021).

“IL-2/MAB602 complex (from UniProt P60568)” had an EC50 of IL-2-induced phosphorylation of STAT5a,b, mouse primary NK cells, IL-2 pre-complexed with 100 nM antibody in assay [1] of 0.361 nM.

With MAB602 (antibody), the fold shift in EC50 of IL-2-induced phosphorylation of STAT5a,b, NK-92 cells, relative to isotype control in assay [2] turned out to be 1000 fold. Also, the fold right-shift in EC50 of IL-2-induced CD69 on CD56bright NK cells, IL-2 pre-complexed with 200 nM antibody in assay [3] was in the range of 5 to 10 fold. Further, the fold EC50 shift of IL-2-induced proliferation, CTLL-2 (muRαβγ) in assay [4] stood at 18 fold. In [5], the fold right-shift in EC50 of IL-2-induced CD69 on Tregs, IL-2 pre-complexed with 200 nM antibody is 5 to 10 fold. In assay [6], the fold EC50 shift of IL-2-induced pSTAT5a,b, Human Primary NK cells (huRβγ) is 10 fold and the fold EC50 shift of IL-2-induced pSTAT5a,b, NK92 (huRαβγ) was determined as 959 fold. Also, in [7], the fold EC50 shift of IL-2-induced proliferation, BaF3/IL-2 HuRβγ is 1.2 fold and the fold EC50 shift of IL-2-induced proliferation, NK92 (huRαβγ) came to 15 fold. In addition, in assay [8], the fold EC50 shift of IL-2-induced pSTAT5a,b, CTLL-2 (muRαβγ) stood at 227 fold and the fold EC50 shift of IL-2-induced pSTAT5a,b, Mouse Primary NK cells (muβγ) stood at 3 fold.

Consider isotype control (anti-KLH) (antibody), for which, in [2], the EC50 of IL-2-induced phosphorylation of STAT5a,b, NK-92 cells, with isotype control was 0.0009 nM. Besides, in assay [9], the EC50 of IL-2-induced phosphorylation of STAT5a,b, mouse primary NK cells, with isotype control was determined as 0.116 nM.

B1: XPA.92.042 (antibody, V domains shown)
VH: EVQLVQSGTEVKKAGDSLKISCKGSGYNFDTYWIGWVRQMPGRGLEWMGTIYPADSDTRYSPSFQGQVTMSADKSISTAYLQWGSLRASDTAMYYCARFSSSAYDIWGQGTMVTVSS
VL: SYELTQPPSVSVSPGQTARITCSGDALPRKFAYWYQQKSGQAPVLVIYQDTKRPSGIPERFSGSSSGTTVTLTISDVQAEDDADYYCQSADRSDSYVFGAGTKLTVLG
With B1, the fold EC50 shift of IL-2-induced proliferation, CTLL-2 (muRαβγ) in assay [4] came to 156 fold. Further, in [6], the fold EC50 shift of IL-2-induced pSTAT5a,b, Human Primary NK cells (huRβγ) is 41 fold and the fold EC50 shift of IL-2-induced pSTAT5a,b, NK92 (huRαβγ) came out at 1860 fold. In addition, in assay [7], the fold EC50 shift of IL-2-induced proliferation, BaF3/IL-2 HuRβγ is 5 fold and the fold EC50 shift of IL-2-induced proliferation, NK92 (huRαβγ) turned out to be 52 fold. In [8], the fold EC50 shift of IL-2-induced pSTAT5a,b, CTLL-2 (muRαβγ) was determined as 793 fold and the fold EC50 shift of IL-2-induced pSTAT5a,b, Mouse Primary NK cells (muβγ) turned out to be 14 fold.

B2: XPA.92.099 (antibody, V domains shown)
VH: QVQLVESGGGLVKPGRSLRLSCAASGFTFNRYAMSWVRQAPGKGLEWVAMISFDGGNQYYTDSVSGRFTISRDNSKTTLFLQMDSLRTEDTAVYYCVRSPAGDWVAYFDYWGQGTLVTVSS
VL: DIQMTQSPSSLSASIGDRVTIPCQASEDISNHLSWYQQKPGKAPKPLIFDASDLETGVPSRFSGSGSGTDFALTISSLRPDDFATYYCHQYHDYPSYTFGHGTKLEIKR
As to B2, the fold EC50 shift of IL-2-induced proliferation, CTLL-2 (muRαβγ) in assay [4] was 54 fold. Also, in assay [6], the fold EC50 shift of IL-2-induced pSTAT5a,b, Human Primary NK cells (huRβγ) turned out to be 24 fold and the fold EC50 shift of IL-2-induced pSTAT5a,b, NK92 (huRαβγ) came to 495 fold. In assay [7], the fold EC50 shift of IL-2-induced proliferation, BaF3/IL-2 HuRβγ was 2.4 fold and the fold EC50 shift of IL-2-induced proliferation, NK92 (huRαβγ) is 22 fold. Besides, in [8], the fold EC50 shift of IL-2-induced pSTAT5a,b, CTLL-2 (muRαβγ) amounted to 293 fold and the fold EC50 shift of IL-2-induced pSTAT5a,b, Mouse Primary NK cells (muβγ) came out at 17 fold.

B3: XPA.92.019 (antibody, V domains shown)
VH: EVQLVESGGGLVQPGRSLRLSCAASGFTFSYYGMHWVRQAPGKGLEWVADISNDGSNKYYADSVKGRFTISRDNSKTTLYLQMNSLRPEDTAVYYCATPYYDSSGLDYWGQGTLVTVSS
VL: SYELTQPPSVSVSPGQTARITCSGDALPKRFAYWYQQKAGQAPVLVIYEDNKRPSGIPETLSGSSSGTTATLTISGAQEEDEADYYCYSTDNTGGLWVFGGGTKLTVLG
In general, Kd refers to the equilibrium constant for the complex coming apart. B3: in [4], the fold EC50 shift of IL-2-induced proliferation, CTLL-2 (muRαβγ) was 130 fold. In addition, in the assay with rat IL-2, the Kd was above 1000 nM. For the same molecule, in assay [5], the fold shift in EC50 of IL-2-induced CD69 on Tregs, IL-2 pre-complexed with 200 nM antibody lay within 10 to 15 fold. Also, in assay [6], the fold EC50 shift of IL-2-induced pSTAT5a,b, Human Primary NK cells (huRβγ) was found to be 40 fold and the fold EC50 shift of IL-2-induced pSTAT5a,b, NK92 (huRαβγ) stood at 966 fold. For the same molecule, in assay [7], the fold EC50 shift of IL-2-induced proliferation, BaF3/IL-2 HuRβγ is 5.2 fold and the fold EC50 shift of IL-2-induced proliferation, NK92 (huRαβγ) came to 33 fold. Besides, in [8], the fold EC50 shift of IL-2-induced pSTAT5a,b, CTLL-2 (muRαβγ) was determined as 523 fold and the fold EC50 shift of IL-2-induced pSTAT5a,b, Mouse Primary NK cells (muβγ) amounted to 15 fold.
